Patent US5885811A, “Leader sequence inducing a post-translational modification of polypeptides in bacteria gene therefor and subtilin variant of enhanced stability and activity” (University of Maryland, priority 1995, dated 1999)

What was measured:
[1] = assay type: physicochemical
Description: Measurement of chemical stability of DHA5. The dehydro residues of nisin and subtilin have vinyl protons that give well-separated resonances in the proton NMR spectrum, Liu and Hansen, Appl. Environ. Microbiol., 56, p. 251 (1990). The areas of the vinyl proton peaks in the NMR spectrum were measured, and chemical modification of DHA5 over time was taken as the decrease in peak area of the DHA5 vinyl protons in subtilin and in E4I-subtilin as compared to zero time. Proton NMR spectra were obtained using a Bruker AMX-500 NMR spectrometer. The spectra were obtained at a constant temperature of 295K, using selective solvent suppression.
Chemical and biological stability of natural subtilin. The natural producer of subtilin is B. subtilis ATCC 6633. […] These dissolved samples were incubated at room temperature, and from time to time, the NMR spectrum of the one sample and the biological activity of the other sample against Bacillus cereus spores were determined. […]
E4I-subtilin has enhanced chemical and biological stability. The central design strategy in the construction of a stable mutant of subtilin was based on the idea that the chemical and biological stabilities of subtilin are determined by the chemical reactivity of DHA5; and that DHA5 in natural subtilin is unstable because the Glu4 carboxyl participates in its chemical modification (FIG. 7). […]

[2] = system: Bacillus cereus T spores; assay: Spore outgrowth liquid assay (amount required to inhibit spore outgrowth during 3 hour assay); assay type: cell-based
Description: (§1) Measurement of biological stability of subtilin. Biological activity against Bacillus cereus spores was measured by a liquid assay in which various concentrations of subtilin were added to a suspension of Bacillus cereus T spores in 15 ml polypropylene tubes, and inhibitory effects were evaluated by phase-contrast microscopy as described previously (Morris et al, J. Biol. Chem., 259, 13590-13594 (1984) and Appl. Environ. Microbiol., 42, 958-962 (1981)). The amount of subtilin required to inhibit spore outgrowth during the 3 hour assay period was used as a measure of antimicrobial activity. Relative amounts of subtilin were estimated from the area of the subtilin peak (measured at 254 nm) that eluted from the C-18 analytical HPLC column during purification. The amounts were converted to molar quantities of subtilin by comparing the peak area of subtilin with that of a known molar quantity of a nisin standard (21). For this purpose, the extinction coefficients of nisin and subtilin at 254 nm were assumed to be the same, in that absorbance at this wavelength is mainly due to the same three dehydro residues present in both peptides. The biological activity against Bacillus cereus spores of the E4I-subtilinmutant was determined in the same way as for natural subtilin.
E4I-subtilin has enhanced specific activity. […]

[3] = system: Bacillus cereus spores; assay: Biological stability: activity against Bacillus cereus spores over time of incubation; assay type: cell-based; settings: 50 mM NaPi pH 6.8, room temperature, compared with DHA5 disappearance
Description: as §1
Chemical and biological stability of natural subtilin. The natural producer of subtilin is B. subtilis ATCC 6633. […]

[4] = reported; cited from earlier work

Compound | t1/2 of chemical modification (disappearance) of DHA5, first-order ([1]; aqueous solution (D2O) pH 6.8, room temperature, NMR at 295K) [h] | concentration showing inhibition of spore outgrowth [2] | concentration showing inhibition of spore outgrowth (molar) [2] [nM] | loss of biological activity against Bacillus cereus spores during incubation [3] | light sensitivity [4] | increase in chemical and biological stability relative to natural subtilin [1] [fold]
C=C1NC(=O)CC[C@@H](C(=O)O)NC(=O)[C@H](NC(=O)[C@H](CCCCN)NC(=O)[C@@H](N)Cc2c[nH]c3ccccc23)CSC[C@@H](C(=O)N[C@@H]2C(=O)N3CCC[C@H]3C(=O)NCC(=O)N[C@H](C(=O)N[C@H](C(=O)N[C@@H]3C(=O)NCC(=O)N[C@@H](C)C(=O)N[C@@H](CC(C)C)C(=O)N[C@@H](CCC(N)=O)C(=O)N/C(=C/C)C(=O)N[C@H](C(=O)N[C@@H](Cc4ccccc4)C(=O)N[C@@H](CC(C)C)C(=O)N[C@@H](CCC(N)=O)C(=O)N[C@@H]4C(=O)N[C@@H](CC(C)C)C(=O)N[C@H]5C(=O)N[C@@H](CSC4C)C(=O)NC(=O)[C@H](CC(N)=O)N[C@H](C(=O)N[C@@H](CCCCN)C(=O)N[C@H](C(=O)NC(=C)C(=O)N[C@@H](CCCCN)C(=O)O)[C@@H](C)CC)CSC5C)CSC3C)C(C)C)CSC2C)N[C@@H](CC(C)C)C(=O)NC1=O (stereo partly drawn) [subtilin] | 19 | about 1 μg per ml | ~280 | dropped at approximately this same rate | light-sensitive | 
C=C(NC(=O)[C@@H](NC(=O)[C@H](CCCCN)NC(=O)[C@@H]1CSC(C)[C@H]2NC(=O)[C@H](CC(C)C)NC(=O)[C@H](NC(=O)[C@H](CCC(N)=O)NC(=O)[C@H](CC(C)C)NC(=O)[C@H](Cc3ccccc3)NC(=O)[C@@H]3CSC(C)[C@@H](NC(=O)[C@@H](NC(=O)[C@@H]4CSC(C)[C@@H](NC(=O)[C@@H]5CSC[C@@H](NC(=O)[C@H](CCCCN)NC(=O)[C@@H](N)Cc6c[nH]c7ccccc67)C(=O)N[C@@H]([C@@H](C)CC)C(=O)NC(=C)C(=O)N[C@@H](CC(C)C)C(=O)N5)C(=O)N5CCC[C@H]5C(=O)NCC(=O)N4)C(C)C)C(=O)NCC(=O)N[C@@H](C)C(=O)N[C@@H](CC(C)C)C(=O)N[C@@H](CCC(N)=O)C(=O)NC(=CC)C(=O)N3)C(C)SC[C@H](NC2=O)C(=O)N[C@@H](CC(N)=O)C(=O)N1)[C@@H](C)CC)C(=O)N[C@@H](CCCCN)C(=O)O (stereo partly drawn) [E4I-subtilin] |  |  |  |  |  | 57
